According to patent US11278600B2, “Human alpha-galactosidase variants” (Codexis, Inc., priority 2014, dated 2022):

How the values were obtained:
Assay type in all cases: biochemical
[1] = HTP-analysis of yeast culture supernatants, no challenge (MUGal hydrolysis); conditions: activity of the variant/activity of Rd2BB (SEQ ID NO: 10), yeast culture supernatant
Outline: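 GLA variants were expressed in INVSc1 yeast grown in SD-Ura broth with glucose at 30° C., and culture supernatants were collected after 66-84 h. Supernatant was mixed with McIlvaine buffer pH 4.8 and MUGal (2 mM stock) in 50 mM citrate, 200 mM KCl, pH 4.6, incubated at 37° C. for 30-180 minutes, then quenched with sodium carbonate.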

[2] = HTP-analysis of supernatants pretreated with base (MUGal hydrolysis); conditions: challenge at pH 7.6; activity of the variant/activity of Rd2BB (SEQ ID NO: 10); yeast culture supernatant
Outline: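 GLA variants were secreted by transformed INVSc1 yeast grown 66-84 h at 30° C. Supernatants were exposed to neutral-to-basic buffers (pH 7.0-9.7) at 37° C for 1-18 h, then assayed with MUGal in acidic citrate/McIlvaine buffer, with fluorescence read after quenching.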

[3] = HTP-analysis of supernatants pretreated with acid (MUGal hydrolysis); conditions: challenge at pH 4.2; activity of the variant/activity of Rd2BB (SEQ ID NO: 10); yeast culture supernatant
Outline: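 Fluorescence of MUGal hydrolysis (Ex. 355 nm, Em. 448 nm) is read after sodium carbonate quench. The enzyme source is INVSc1 yeast culture supernatant, first exposed to pH 3.3-4.3 McIlvaine buffer at 37° C. for 1-3 h, then reacted at pH 4.8 for 30-180 minutes.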

[4] = HTP-analysis of supernatants pretreated with bovine serum (MUGal hydrolysis); conditions: activity of the variant/activity of Rd2BB (SEQ ID NO: 10), yeast culture supernatant
Outline: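 Yeast INVSc1 culture supernatants containing secreted GLA variants were mixed with bovine serum (20:80) and held 1 h at 37° C. Serum-treated samples then reacted with MUGal (4 mM stock) in citrate/McIlvaine buffer (pH 4.3/4.8) for 180 min at 37° C., were quenched with sodium carbonate, and read by fluorescence (Ex 355, Em 448 nm).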

Row | Molecule | Relative Activity of GLA Variants After No Challenge (NC) [1] | Relative Activity of GLA Variants After Challenge at pH 7.6 [2] | Relative Activity of GLA Variants After Challenge at pH 4.2 [3] | Relative Activity of GLA Variants After Challenge with Serum [4]
1 | 233 (protein, Synthetic Polypeptide sequence of Variant No. 233 of mature Human GLA) LDNGLARTPTMGWLHWERFMCNLDCQEEPDSCISEKLFMEMAELMVSEGWKDAGYEYLCIDDCWMAPQRDSEGRLQADPQRFPHGIRQLANYVHSKGLKLGIYADVGNKTCAGFPGSFGYYDIDAQTFADWGVDLLKFDGCYCDSLENLADGYKHMSLALNRTGRSIVYSCEWPLYMWPFQKPNYTEIRQYCNHWRNFADIDDSWASIKSILDWTSRNQERIVDVAGPGGWNDPDMLVIGNFGLSWDQQVTQMALWAIMAAPLFMSNDLRHISPQAKALLQDKDVIAINQDPLGKQGYQLRQGDNFEVWERPLSGDAWAVAMINRQEIGGPRSYTIAVASLGKGVACNPGCFITQLLPVKRKLGFYDWDSRLRSHINPTGTVLLQLENTMQMSLKDLL | +++ (+++ = >2.5 relative activity over Rd2BB (SEQ ID NO: 10)) | +++ (+++ = >2.5 relative activity over Rd2BB (SEQ ID NO: 10)) | +++ (+++ = >2.5 relative activity over Rd2BB (SEQ ID NO: 10)) | +++ (+++ = >2.5 relative activity over Rd2BB (SEQ ID NO: 10))
2 | 234 (protein, Synthetic Polypeptide sequence of Variant No. 234 of mature Human GLA) LDNGLARTPTMGWLHWERFMCNLDCQEEPDSCISEKLFMEMAELMVSEGWKDAGYEYLCIDDCWMAPQRDSEGRLQADPQRFPHGIRQLANYVHSKGLKLGIYADVGNKTCAGFPGSFGYYDIDAQTFADWGVDLLKFDGCYCDSLENLADGYKHMSLALNRTGRSIVYSCEWPLYMWPFQKPNYTEIRQYCNHWRNFADIDDSWASIKSILDWTSRNQERIVDVAGPGGWNDPDMLVIGNFGLSWDQQVTQMALWAIMAAPLFMSNDLRHISPQAKALLQDKDVIAINQDPLGKQGYQLRKGDNFEVWERPLSGLAWAVAMINRQEIGGPRSYTIAVASLGKGVACNPGCFITQLLPVKRKLGFYDWDSRLRSHINPTGTVLLQLENTMQMSLKDLL | +++ (+++ = >2.5 relative activity over Rd2BB (SEQ ID NO: 10)) | +++ (+++ = >2.5 relative activity over Rd2BB (SEQ ID NO: 10)) | +++ (+++ = >2.5 relative activity over Rd2BB (SEQ ID NO: 10)) | +++ (+++ = >2.5 relative activity over Rd2BB (SEQ ID NO: 10))
3 | 235 (protein, Synthetic Polypeptide sequence of Variant No. 235 of mature Human GLA) LDNGLARTPTMGWLHWERFMCNLDCQEEPDSCISEKLFMEMAELMVSEGWKDAGYEYLCIDDCWMAPQRDSEGRLQADPQRFPHGIRQLANYVHSKGLKLGIYADVGNKTCAGFPGSFGYYDIDAQTFADWGVDLLKFDGCYCDSLENLADGYKHMSLALNRTGRSIVYSCEWPLYMWPFQKPNYTEIRQYCNHWRNFADIDDSWASIKSILDWTSRNQERIVDVAGPGGWNDPDMLVIGNFGLSWDQQVTQMALWAIMAAPLFMSNDLRHISPQAKALLQDKDVIAINQDPLGKQGYQLRKGDNFEVWERPLSGDAWAVAMINRQEIGGPRSYTIPVASLGKGVACNPGCFITQLLPVKRKLGFYDWDSRLRSHINPTGTVLLQLENTMQMSLKDLL | +++ (+++ = >2.5 relative activity over Rd2BB (SEQ ID NO: 10)) | +++ (+++ = >2.5 relative activity over Rd2BB (SEQ ID NO: 10)) | +++ (+++ = >2.5 relative activity over Rd2BB (SEQ ID NO: 10)) | +++ (+++ = >2.5 relative activity over Rd2BB (SEQ ID NO: 10))
4 | 292 (protein, Synthetic Polypeptide sequence of Variant No. 292 of mature Human GLA) LDNGLARTPTMGWLHWERFMCNLDCQEEPDSCISEKLFMEMAERMVSEGWKDAGYEYLCIDDCWMAPQRDSEGRLQADPQRFPHGIRQLANYVHSKGLKFGIYADVGNKTCAGFPGSFGYYDIDAQTFADWGVDLLKFDGCYCDSLENLADGYKHMSLALNRTGRSIVYSCEWPLYMWPFQKPNYTEIRQYCNHWRNFADIDDSWASVKSILDWTSFNHERIVDVAGPGGWNDPDMLVIGNFGLSWDQQVTQMALWAIMAAPLFMSNDLRHISPQAKALLQDKDVIAINQDPLGKQGYQLRKGDNFEVWERPLSGLAWAVAVINRQEIGGPRSYTIAVASLGKGVACNPACFITQLLPVKRKLGFYEWTSRLKSHVNPTGTVLLQLENTMQMSLKDLL | +++ (+++ = >2.5 relative activity over Rd2BB (SEQ ID NO: 10)) | +++ (+++ = >2.5 relative activity over Rd2BB (SEQ ID NO: 10)) | ++ (++ = 1.5 to 2.5 relative activity over Rd2BB (SEQ ID NO: 10)) | ++ (++ = 1.5 to 2.5 relative activity over Rd2BB (SEQ ID NO: 10))
5 | 294 (protein, Synthetic Polypeptide sequence of Variant No. 294 of mature Human GLA) LDNGLARTPTMGWLHWERFMCNLDCQEEPDSCISEKLFMEMAERMVSEGWKDAGYEYLCIDDCWMAPQRDSEGRLQADPQRFPHGIRQLANYVHSKGLKFGIYADVGNKTCAGFPGSFGYYDIDAQTFADWGVDLLKFDGCYCDSLENLADGYKHMSLALNRTGRSIVYSCEWPLYMWPFQKPNYTEIRQYCNHWRNFADIDDSWASVKSILDWTSFNQETIVDVAGPGGWNDPDMLVIGNFGLSWDQQVTQMALWAIMAAPLFMSNDLRHISPQAKALLQDKDVIAINQDPLGKQGYQLRQGDNFEVWERPLSGLAWAVAVINRQEIGGPRSYTIAVASLGKGVACNPACFITQLLPVKRKLGFYEWTSRLRSHVNPTGTVLLQLENTMQMSLKDLL | ++ (++ = 1.5 to 2.5 relative activity over Rd2BB (SEQ ID NO: 10)) | +++ (+++ = >2.5 relative activity over Rd2BB (SEQ ID NO: 10)) | ++ (++ = 1.5 to 2.5 relative activity over Rd2BB (SEQ ID NO: 10)) | + (+ = 0.5 to 1.5 relative activity over Rd2BB (SEQ ID NO: 10))
6 | 295 (protein, Synthetic Polypeptide sequence of Variant No. 295 of mature Human GLA) LDNGLARTPTMGWLHWERFMCNLDCQEEPDSCISEKLFMEMAERMVSEGWKDAGYEYLCIDDCWMAPQRDSEGRLQADPQRFPHGIRQLANYVHSKGLKFGIYADVGNKTCAGFPGSFGYYDIDAQTFADWGVDLLKFDGCYCDSLENLADGYKHMSLALNRTGRSIVYSCEWPLYMWPFQKPNYTEIRQYCNHWRNFADIDDSWASVKSILDWTSFNQETIVDVAGPGGWNDPDMLVIGNFGLSWDQQVTQMALWAIMAAPLFMSNDLRHISPQAKALLQDKDVIAINQDPLGKQGYQLRKGDNFEVWERPLSGLAWAVAIINRQEIGGPRSYTIAVASLGKGVACNPACFITQLLPVKRKLGLYEWTSRLKSHVNPTGTVLLQLENTMQMSLKDLL | +++ (+++ = >2.5 relative activity over Rd2BB (SEQ ID NO: 10)) | +++ (+++ = >2.5 relative activity over Rd2BB (SEQ ID NO: 10)) | +++ (+++ = >2.5 relative activity over Rd2BB (SEQ ID NO: 10)) | +++ (+++ = >2.5 relative activity over Rd2BB (SEQ ID NO: 10))
7 | 293 (protein, Synthetic Polypeptide sequence of Variant No. 293 of mature Human GLA) LDNGLARTPTMGWLHWERFMCNLDCQEEPDSCISEKLFMEMAERMVSEGWKDAGYEYLCIDDCWMAPQRDSEGRLQADPQRFPHGIRQLANYVHSKGLKFGIYADVGNKTCAGFPGSFGYYDIDAQTFADWGVDLLKFDGCYCDSLENLADGYKHMSLALNRTGRSIVYSCEWPLYMWPFQKPNYTEIRQYCNHWRNFADIDDSWASVKSILDWTSFNQEKIVDVAGPGGWNDPDMLVIGNFGLSWDQQVTQMALWAIMAAPLFMSNDLRHISPQAKALLQDKDVIAINQDPLGKQGYQLRKGDNFEVWERPLSGLAWAVAVINRQEIGGPRSYTIAVASLGKGVACNPACFITQLLPVKRKLGLYEWTSRLRSHVNPTGTVLLQLENTMQMSLKDLL | ++ (++ = 1.5 to 2.5 relative activity over Rd2BB (SEQ ID NO: 10)) | ++ (++ = 1.5 to 2.5 relative activity over Rd2BB (SEQ ID NO: 10)) | + (+ = 0.5 to 1.5 relative activity over Rd2BB (SEQ ID NO: 10)) | + (+ = 0.5 to 1.5 relative activity over Rd2BB (SEQ ID NO: 10))
